These results are taken from patent publication US20220025029A1 (Regeneron, published 2022).

The term Kd denotes the equilibrium constant for the complex coming apart. A lower Kd goes with tighter binding. As usually defined, the koff is a measure of how fast the partners let go of each other. The term kon denotes a measure of how fast the partners come together. A lower kon goes with slower complex formation.

To fix the notation:
B1: H4H2797P (antibody, human IgG4, V domains shown)
VH: QVQLVESGGGVVLPGRSLRLSCAASGFTFSSYLMYWVRQAPGKGLEWVAVIWYDGSNKFYGDSVKGRFTISRDNSKNTLYLQMNSLRAEDTAVYYCARDNGNSGYEDSWNAFDIWGQGTMVTVSS
VL: DIQMTQSPSSLSASVGDRVTITCRASQDIYNYLAWFQQKPGKAPKSLIYAASSLQTGVPSQFSGSGSGTDFTLTISSLQPEDFATYYCQQYNNYPFTFGPGTKVDIK
notes: human IgG4 Fc (H4H prefix)
B2: H4H2597B (antibody, human IgG4, V domains shown)
VH: EVQLVESGGGLVQPGGSLRLSCAVSGFTFSNYAMNWVRQAPGKGLEWVSVISDSGRSTYYADSVKGRFTISRDNSKNTLYLQMNSLRAEDTAVYFCAKRYNWNLHYFDYWGQGTTVTVSS
VL: EIVLTQSPDFQSVTPKEKVTITCRASQSIGGSLHWYQQKPDQSPKLLIKYASQSFSGVPSRFSGSGSGTDFTLTINSLEAEDAATYYCLQSSSLRTFGQGTKVEIKR
notes: human IgG4 Fc (H4H prefix)
B3: H4H2606B (antibody, human IgG4, V domains shown)
VH: EVQLVESGGGLVKPGGSLRLSCAASGFTFSDYYMNWIRQAPGKGLEWVSYISSSGNSIYYADSVKGRFTISRDNAKNSLFLQMSSLRAEDTAVYYCARDGRYNDRRRGYYWGQGTLVTVSS
VL: EIVMTQSPDFQSVTPKEKVTITCRASQSIGSSLHWYQQKPDQSPKLLIKYASQSFSGVPSRFSGSGSGTDFTLTINSLEAEDAATYYCLQSSSLRTFGQGTKVEIKR
notes: human IgG4 Fc (H4H prefix)
B4: H1M1241N (antibody, V domains shown)
VH: EVQLVESGGGLVKPGGSLRLSCAASGFTFSSYSMNWVRQAPGKGLEWVSSISSRSSYIYYADSVKGRFTISRDNAKNSLYLQMNSLRAEDTAVYYCARDHIVVVPGASYYYYGMDVWGQGTTVTVSS
VL: DIQMTQSPSSLSASVGDRVTITCRASQGIRNDLGWYQQKPGKAPKRLISAASSLQSGVPSRFSGSGSGTEFTLTISSLQPEDFATYYCLQHNSYPLTFGGGTKVEIK
notes: chimeric: human variable domains, mouse constant domains (H1M prefix, mouse Fc)
B5: H4H2594S (antibody, human IgG4, V domains shown)
VH: EVQLVESGGGLVKPGGSLRLSCAASGFTFSDYYMNWIRQAPGKGLEWVSYISSSGSSIYYADSVKGRFTISRDNAKNSLYLLMNSLRAEDTAVYYCARDGKYNSSPGDYWGQGTLVTVSS
VL: DIQMTQSPSSLSASVGDRVTIACRASQGISNYLAWFQQKPGKAPKSLIYAASSLQSGVPSKFSGSGSGTDFTLTISSLQPEDFATYYCQQYNSYPLTFGGGTKVEIKR
notes: human IgG4 Fc (H4H prefix)
B6: H4H2607B (antibody, human IgG4, V domains shown)
VH: EVQLVESGGGLVKPGGSLRLSCAASGFTFSDYYMNWIRQAPGKGLEWISYLSSSGSATYYADSVKGRFTISRDNAKNSLYLQMNSLRAEDTAVYYCARDGKYNTVAGDYWGQGTTVTVSS
VL: DIQLTQSPSSLSASVGDRVTITCRASQGIRNDLGWYQQKPGKAPKRLIYAASSLQSGVPSRFSGSGSGTEFTLTISSLQPEDFATYYCLQHNSYPYTFGQGTKVEIKR
notes: human IgG4 Fc (H4H prefix)
B7: H1M1234N (antibody, V domains shown)
VH: QVQLQQSGPGLVKSSQTLSLTCAISGDSVSSNSVAWNWIRQSPSRGLEWLGRTYYRSKWYNDYAVSVKSRININPDTSKNHFSLQLNSVTPEDTAVYFCARAWNWYYLDYWGQGTLVTVSS
VL: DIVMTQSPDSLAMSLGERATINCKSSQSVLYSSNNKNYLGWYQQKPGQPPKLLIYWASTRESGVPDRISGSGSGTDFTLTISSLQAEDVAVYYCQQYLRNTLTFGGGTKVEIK
notes: as for B4
B8: H2M1236N (antibody, mouse IgG2, V domains shown)
VH: QVQLQESGPGLVKPSETLSLTCTVSGGSISNYYWSWIRQPPGKGLEWIGYIYYSGRTNYNPSLKSRVTISVDTSKNQFSLKLRSVTAADTAVYYCARHRITRTADSFDYWGQGTLVTVSS
VL: DIQMTQSPSSLSASVGDRVTITCQASQDITNYLNWYQQKPGKAPKLLIYDASNLETGVPSRFSGSGSGTDFTFTISSLQPEDVATFYCHQYGDLPYTFGQGTKLEIK
notes: chimeric: human variable domains, mouse IgG2 Fc (H2M prefix)
B9: H2M1233N (antibody, mouse IgG2, V domains shown)
VH: QVVLVESGGGVVQPGRSLRLSCAASGFTFSSYGMHWVRQAPGKGLEWVAVIWYDGSNKYYVDSVKGRFTISRDNSNNTIYLQMNSLRAEDTAVYYCARSLIPVAGTDPIFGYWGQGTLVTVSS
VL: DIQMTQSPSTLSASVGDRVTITCRASQSVSSWLAWYQQKPGKAPKLLIFKASGLESGVPFRFSGSGSGTEFTLTISSLQPDDFATYYCQQYNTYSPTFGQGTKVEIK
notes: as for B8
B10: H2M1242N (antibody, mouse IgG2, V domains shown)
VH: EVQLVESGGGLVRPGGSLRLSCAASGFTFTSYAMNWVRQAPGKGLEWVSSISSYSSYIYIADSVKGRFTLSRDNAKNSLYLQMHSLRPEDTAVYFCAREGYSAYSYFDFWGRGTLVTVSS
VL: DIQMTQSPSTLSASVGDRVTITCRASQSVISWLAWYQQKPGKAPKLLIHRASSLESGVPSRFSGSGSGTEFTLTISGLQPDDFATYYCQQYNTYFPTFGQGTKVEVK
notes: as for B8
B11: H2M1237N (antibody, mouse IgG2, V domains shown)
VH: QVVLVESGGGVVQPGRSLRLSCAASGFTFSSYGMHWVRQAPGKGLEWVAVIWYDGSIKYYADSVKGRFTISRDNSNNTIYLQMNSLRAEDTAVYYCARALIPVAGTDPIFGYWGQGTLVTVSS
VL: DIQMTQSPSTLSASVGDRVTITCRASQSVSSWLAWYQQKPGKAPKLLIFKTSGLESGVPFRFSGSGSGTEFTLTISSLQPDDFATYYCQQYNTYSPTFGQGTKVEIK
notes: as for B8
B12: H1M1230N (antibody, V domains shown)
VH: EVQLVESGGGLVQPGGSLRLSCTASGFIFSNFWMTWVRQAPGKGLEWVANIKQDGSETYCVDSVKGRFTISRDHAKNSLFLQMNSLRAEDTAVYYCARGAGTIYYYGMDVWGQGTTVIVSS
VL: DIQMTQSPSSVSASVGDRLTITCRASQDISSWLTWYQQKPGKAPNLLIYAASGLQSGVPSRFSGSGSGTDFTLTISNLQPEDFATYYCQQANSFPLTFGQGTRLEIK
notes: as for B4
B13: H4H3467D (bispecific antibody, V domains shown)
VH 1: EVQLVESGGGLAQPGGSLRLSCAASGFTFNNYAMTWVRQAPGKGLDWVSAISDSGRSTFSADSVKGRFTISRDNSKNTLYLQMDSLRAEDTALYYCAKHRNWNYPVFDYWGQGTLVTVSS
VH 2: EVQLVESGGGLVKPGGSLRLSCAASGFTFRNYNINWVRQAPGKGLEWVSLISGSSSYIYYADSVKGRFTVSRDNAKNSLYLQMNSLRAEDTAVYYCARRTLSYYVMDVWGQGTTVTVSS
VL: DIQLTQSPSFLSASVGDRVTITCWASQGISSYLAWYQQKPGKAPKLLIYSASTLQSGVPSRFSGSGSGTEFTLTISSLQPEDFATYYCQQLNSYPFTFGPGTKVDIK
notes: Bi-specific with a common kappa light chain on both Fab arms; human IgG4 Fc by the H4H prefix
B14: H4H8751D (bispecific antibody, V domains shown)
VH 1: EVQLVESGGGLVQPGGSLRLSCAASGFTFSSYAMSWVRQAPGKGLEWVSAISGRGYNADYADSVKGRFTISRDNSKNTLYLQMNSLRAEDTAVYYCAKLEYFDYWGQGTLVTVSS
VH 2: EVQLVESGGGLVKPGGSLRLSCAASGFTFRNYNINWVRQAPGKGLEWVSLISGSSSYIYYADSVKGRFTVSRDNAKNSLYLQMNSLRAEDTAVYYCARRTLSYYVMDVWGQGTTVTVSS
VL: DIQMTQSPSTLSASVGDRVTITCRASQSISSWLAWYQQKPGKAPKLLIYKASSLESGVPSRFSGSGSGTDFTLTISSLRPEDFATYYCQQYNSYPLTFGGGTKVEIK
notes: as for B13

The target in the first assay is T1, natural Fel d1 (Indoor Biotech, #NA-FD1-2) (cat, UniProt P30438 23-92; P30440 18-109).
T1 construct: Bought natural heterodimeric glycoprotein, chains linked by disulfide bonds; also called nFel d1; nFel d 1
T1 sequence (P30438 other isoform, or with tags, fused parts or gaps, chain 1 of 2): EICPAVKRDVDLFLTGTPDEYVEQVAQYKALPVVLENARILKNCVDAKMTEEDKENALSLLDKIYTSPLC
T1 sequence (P30440 18-109, chain 2 of 2): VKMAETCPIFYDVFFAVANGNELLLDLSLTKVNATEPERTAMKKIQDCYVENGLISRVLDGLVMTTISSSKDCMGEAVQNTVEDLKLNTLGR
In words: SPR (Biacore), mAb captured, natural Fel d1 injected, 25 C.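 Also: rate constants obtained by fitting association and dissociation phases to a one-to-one binding model, with Kd and half-life derived from those rate constants.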 On the technique in general: In SPR one partner is held on a chip, and binding of the other changes the refractive index at the surface.
B1 gave a Kd of 35.4 nM, a koff of 0.00713 s⁻¹, a kon of 202000 M⁻¹ s⁻¹ and a t1/2 of 2 min.

For B2, the Kd is 0.65 nM, the koff is 0.0015 s⁻¹, the kon is 2.31e+06 M⁻¹ s⁻¹ and the t1/2 turned out to be 8 min.

Consider B3, for which binding was put at a Kd of 0.765 nM, the koff is 0.000707 s⁻¹, the association rate constant (kon) was determined as 924000 M⁻¹ s⁻¹ and the t1/2 came to 16 min.

Take B4: binding was put at a Kd of 3.63 nM, the koff was determined as 0.000662 s⁻¹, the kon amounted to 182000 M⁻¹ s⁻¹ and the t1/2 was determined as 17 min.

Molecule B5 showed a Kd of 0.878 nM, a koff of 0.000965 s⁻¹, a kon of 1.1e+06 M⁻¹ s⁻¹ and a t1/2 of 12 min.

For B6, the Kd was 0.307 nM, the koff is 0.00091 s⁻¹, the kon amounted to 2.97e+06 M⁻¹ s⁻¹ and the t1/2 was determined as 13 min.

Consider B7, for which binding was characterised by a dissociation constant (Kd) of 18.3 nM, the off-rate (koff) amounted to 0.00679 s⁻¹, the kon is 371000 M⁻¹ s⁻¹ and the t1/2 was 2 min.

The molecule B8 displayed a Kd of 4.55 nM, a koff of 0.00142 s⁻¹, a kon of 312000 M⁻¹ s⁻¹ and a t1/2 of 8 min.

Consider B9, for which binding was put at a Kd of 1.4 nM, the koff came to 0.000353 s⁻¹, the on-rate constant (kon) was found to be 253000 M⁻¹ s⁻¹ and the t1/2 worked out at 33 min.

Regarding B10, the Kd turned out to be 3.14 nM, the koff was 0.000604 s⁻¹, the kon is 192000 M⁻¹ s⁻¹ and the t1/2 came out at 19 min.

In turn, B11 came in with a Kd of 0.982 nM, a koff of 0.000276 s⁻¹, a kon of 281000 M⁻¹ s⁻¹ and a t1/2 of 42 min.

On to B12, for which the Kd is 3.37 nM, the off-rate (koff) was 0.000869 s⁻¹, the kon was 258000 M⁻¹ s⁻¹ and the t1/2 turned out to be 13 min.

Another assay concerns the target T1, natural Fel d1 (Indoor Biotech, …). Nature of the assay: SPR (Biacore 2000), mAb captured via anti-human Fc, nFel d 1 injected, 25 C.
As for B13, the “600 nM nFel d 1 Bound (RU)” value stood at 35 RU, the Kd amounted to 0.25 nM, the koff turned out to be 0.000712 s⁻¹ and the kon stood at 2.85e+06 M⁻¹ s⁻¹. The molecule further yielded a t1/2 of 16 min.

B14: the “600 nM nFel d 1 Bound (RU)” value was determined as 30 RU; the affinity, expressed as Kd, was 0.347 nM; the koff is 0.00062 s⁻¹; the kon is 1.79e+06 M⁻¹ s⁻¹. This molecule showed a t1/2 of 19 min.
